Reference: patent publication US7875275B2, “Use of Bridge-1 and activators and inhibitors thereof in the treatment of insulin deficiency and diabetes” (The General Hospital Corporation, priority 2004, dated 2011)
Blank lines part the entries; values can stand above or below the molecule they belong to.

Columns and labels:
[1] = target: T1, Bridge-1 (Gal4 DBD-Bridge-1) (Rattus norvegicus, UniProt Q9WTV5); assay: Gal4-Bridge-1 transactivation assay in BHK cells (Gal4-luciferase reporter); assay type: cell-based
T1 construct: excision of full-length rat Bridge-1 cDNA from the previously reported Gal4-Bridge-1 (pM-Bridge-1) vector; expressed in transfected cells; host or cells: BHK cells (BHK-21 C-13), transient transfection
Method: FIG. 17 (a-d). The coactivator Bridge-1 interacts with multiple domains of p300. (a) Trichostatin A increases transcriptional activation by Bridge-1. BHK cells were transfected in duplicate with 1.5 μg Gal4-Bridge-1 or empty Gal4 expression vector, 3.25 μg pBluescript, and 250 ng of a Gal4-luciferase reporter and treated with vehicle (0), 2, or 4 ng/mL trichostatin A for 24 hours. Results shown are the mean+/−SEM relative luciferase activity of Gal4-Bridge-1 normalized to the empty Gal4 expression vector (n=3-5 transfections). (b) p300 increases the transcriptional activation by Bridge-1. BHK cells were transfected in duplicate with 0-3 μg of the p300 expression vector pCMV-p300 and 0.5 μg Gal4-Bridge-1 or empty Gal4 expression vector and 1 μg of a Gal4-CAT reporter. pBluescript was used to normalize the total DNA content for all conditions. Data shown are the mean of two transfections. (c) Bridge-1 directly interacts with p300. GST-Bridge-1 or GST control proteins were incubated with in vitro translated, radiolabeled [^35S]-p300 in GST protein interaction assays. A representative autoradiogram is shown of an SDS polyacrylamide gel from a GST pull-down protein interaction assay with the migration position of [^35S]-p300 designated (arrow). (d) Bridge-1 interacts with multiple domains within p300. […]
Various compounds were assayed for their ability to activate or inhibit Bridge-1 transactivation function. In these experiments, the transactivation assay previously described (Thomas, M. K. et al., Mol. Cell. Biol. 19(12):8492-8504 (1999)) incorporated herein by reference) was used with the modification that the plasmid reporter was a Gal4 luciferase reporter with luciferase activity measured rather than the Gal4CAT reporter used in 1999. […]
(§1) Cell culture and transfections. […] Transfections were conducted with Lipofectamine or Lipofectamine 2000 (Invitrogen Life Technologies) according to published methods (Thomas, M. K., et al., Molec. Cell. Biol. 19:8492-8504 (1999). Yeast transcriptional activation assays were conducted as previously reported (Thomas, M. K., et al., supra; Golemis, E. A., et al., Current Protocols in Molecular Biology, Ausubel, F. M., et al., eds., John Wiley and Sons, pp. 13.14.1-13.14.17 (1994)) with quantitative LexA-operator responsive beta-galactosidase reporter assays as outlined by the manufacturer (BD Biosciences Clontech, Palo Alto, Calif.).

Gal4-Bridge-1 = target: T2, Gal4-Bridge-1 (UniProt P04386+Q9WTV5); assay: Gal4-Bridge-1 transcriptional activation of Gal4-CAT reporter in BHK cells; assay type: cell-based, rat; settings: 0-3 μg pCMV-p300 expression vector
T2 construct: excision of full-length rat Bridge-1 cDNA from the previously reported Gal4-Bridge-1 (pM-Bridge-1) vector; expressed in transfected cells; host or cells: BHK cells (BHK-21 C-13), transient transfection
Method: FIG. 17 (a-d). The coactivator Bridge-1 interacts with multiple domains of p300. (a) Trichostatin A increases transcriptional activation by Bridge-1. BHK cells were transfected in duplicate with 1.5 μg Gal4-Bridge-1 or empty Gal4 expression vector, 3.25 μg pBluescript, and 250 ng of a Gal4-luciferase reporter and treated with vehicle (0), 2, or 4 ng/mL trichostatin A for 24 hours. Results shown are the mean+/−SEM relative luciferase activity of Gal4-Bridge-1 normalized to the empty Gal4 expression vector (n=3-5 transfections). (b) p300 increases the transcriptional activation by Bridge-1. […]
as §1

PDX-1 Bait = target: T3, PDX-1 Bait (Rattus norvegicus, UniProt P52947); assay: Semiquantitative yeast two-hybrid interaction trap assay; assay type: binding; design: key: ++: growth on leucine dropout plates and intense blue colonies on X-gal plates; −: no growh on leucine dropout plates and white colonies on X-gal plates; settings: LexA-rat PDX-1 amino acids 160-283 bait, LEU2 and lacZ reporters
T3 construct: A LexA-rat PDX-1 bait fusion protein construct consisting of PDX-1 amino acids 160-283 cloned in the vector pEG202; expressed in transfected cells
Method: Yeast interaction trap assays. Semiquantitative yeast two-hybrid interaction trap assays were conducted as previously reported (Golemis et al., 1994; Thomas et al., 1999). A LexA-rat PDX-1 bait fusion protein construct consisting of PDX-1 amino acids 160-283 cloned in the vector pEG202 and an acidic domain-rat Bridge-1 fusion protein construct cloned in the vector pJG4-5 were independently tested for activation of LexA operator-responsive LEU2 or β-galactosidase (lacZ) reporters in yeast. Interactions of E12 with rat Twist and rat inhibitor of differentiation-3 (Id3) proteins were used as positive controls and interactions of Bridge-1 with the human interleukin-1 receptor or D. melanogaster bicoid proteins were used as negative controls for the assays (Thomas et al., 1999). Fusion protein interactions were measured independently by growth on leucine dropout plates as a measure of LEU reporter activation or by blue color intensity with growth for 72 hours at 30° C. on X-Gal (5-bromo-4-chloro-3-indoyl-β-D-galactopyranoside) plates as a measure of lacZ reporter activation.
We assessed whether Bridge-1 interacts with PDX-1 in a yeast two-hybrid interaction trap system. […] Thus the rat Bridge-1 protein interacts with a carboxy-terminal PDX-1 protein fragment in yeast cells.

[2] = Gal4-luciferase reporter, 24 hours incubation, vs vehicle

T3 sequence (P52947 160-283): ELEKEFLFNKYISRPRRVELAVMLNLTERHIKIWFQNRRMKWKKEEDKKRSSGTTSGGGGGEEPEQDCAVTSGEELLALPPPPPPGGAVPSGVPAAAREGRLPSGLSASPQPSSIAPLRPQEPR
T1 sequence (Q9WTV5 with tags, fused parts or gaps): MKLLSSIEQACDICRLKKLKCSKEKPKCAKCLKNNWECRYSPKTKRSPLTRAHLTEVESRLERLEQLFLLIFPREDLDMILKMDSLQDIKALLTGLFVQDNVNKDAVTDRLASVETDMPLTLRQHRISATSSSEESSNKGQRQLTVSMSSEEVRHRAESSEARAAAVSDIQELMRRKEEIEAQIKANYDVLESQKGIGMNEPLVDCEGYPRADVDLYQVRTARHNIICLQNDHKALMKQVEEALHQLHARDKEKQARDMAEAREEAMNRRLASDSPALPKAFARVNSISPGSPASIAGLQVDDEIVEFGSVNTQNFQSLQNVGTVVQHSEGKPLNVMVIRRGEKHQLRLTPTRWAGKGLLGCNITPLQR
T2 sequence (P04386+Q9WTV5 fused): as the sequence (Q9WTV5 with tags, fused parts or gaps) above

Molecule: p300: histone acetyltransferase and nuclear receptor coactivator, expressed from pCMV-p300 vector
increase of reporter activation by Gal4-Bridge-1 (Gal4-Bridge-1): over 70 fold

Molecule: Activin A
activation of Bridge-1 transactivation function [1, 2]: 2.34 fold

B1: Id3: rat inhibitor of differentiation-3 protein, control in yeast interaction trap assay (protein)
chain: MKALSPVRGCYEAVCCLSERSLAIARGRGKSPSAEEPLSLLDDMNHCYSRLRELVPGVPRGTQLSQVEILQRVIDYILDLQVVLAEPAPGPPDGPHLPIQTAELTPELVISKDKRSFCH
Interaction with PDX-1 Bait (PDX-1 Bait): −

B2: Twist: rat Twist protein, control in yeast interaction trap assay (protein)
chain: MMQDVSSSPVSPADDSLSNSEEEPDRQQPASGKRGARKRRSSRRSAGGSAGPGGATGGGIGGGDEPGSPAQGKRGKKSAGGGGGAGGGGGGGGSSSGGGSPQSYEELQTQRVMANVRERQRTQSLNEAFAALRKIIPTLPSDKLSKIQTLKLAARYIDFLYQVLQSDELDSKMASCSYVAHERLSYAFSVWRMEGAWSMSASH
Interaction with PDX-1 Bait (PDX-1 Bait): −

Further lines, with some results ahead:

inhibition of Bridge-1 transactivation function [1, 2]: 22%
Molecule: CC(=O)[C@H]1CC[C@H]2[C@@H]3CCC4=CC(=O)CC[C@]4(C)[C@H]3CC[C@]12C [Progesterone]

activation of Bridge-1 transactivation function [1, 2]: 2.7 fold
Molecule: CC(/C=C/C(=O)NO)=C\[C@@H](C)C(=O)c1ccc(N(C)C)cc1 [Trichostatin A]
effect on transcriptional activation by Bridge-1 ([1]; 2 or 4 ng/mL for 24 hours): increased the transcriptional activation by Bridge-1 in a dose-dependent manner

Interaction with PDX-1 Bait (PDX-1 Bait): ++
B3: Bridge-1: rat PDZ-domain transcriptional coactivator, acidic domain fusion in pJG4-5 (protein)
chain: MSSEEVRHRAESSEARAAAVSDIQELMRRKEEIEAQIKANYDVLESQKGIGMNEPLVDCEGYPRADVDLYQVRTARHNIICLQNDHKALMKQVEEALHQLHARDKEKQARDMAEAREEAMNRRLASDSPALPKAFARVNSISPGSPASIAGLQVDDEIVEFGSVNTQNFQSLQNVGTVVQHSEGKPLNVMVIRRGEKHQLRLTPTRWAGKGLLGCNITPLQR
modifications: left off: small tags and cut ends
